Residue numbers refer to the chain shown, from its start. In names and notes the source's numbering stands.
T1: Acetyl-Asp-Glu-Val-Asp-pNA
T1 chain: DEVD

T2: Acetyl-Tyr-Val-Ala-Asp-pNA
T2 chain: YVAD

B1: D381E N-His ICE (D381E-modified human interleukin-1β converting enzyme, p20/p10, with N-terminal polyhistidine tag) (protein)
chain 1: HHHHHHNPAMPTSSGSEGNVKLCSLEEAQRIWKQKSAEIYPIMDKSSRTRLALIICNEEFDSIPRRTGAEVDITGMTMLLQNLGYSVDVKKNLTASDMTTELEAFAHRPEHKTSDSTFLVFMSHGIREGICGKKHSEQVPDILQLNAIFNMLNTKNCPSLKDKPKVIIIQACRGDSPGVVWFKD
chain 2: AIKKAHIEKDFIAFCSSTPDNVSWRHPTMGSVFIGRLIEHMQEYACSCDVEEIFRKVRFSFEQPEGRAQMPTTERVTLTRCFYLFPGH
B2: WT N-His ICE (wild-type human interleukin-1β converting enzyme, p20/p10, with N-terminal polyhistidine tag) (protein)
chain 1: B1 chain 1
chain 2: B1 chain 2 with E65D

Legend:
[1] = target: T1, Acetyl-Asp-Glu-Val-Asp-pNA
[2] = target: T2, Acetyl-Tyr-Val-Ala-Asp-pNA

Row | Protein | Km values [1] [µM] | Vmax values (M^-1 s^-1) [1] | Km values [2] [µM] | Vmax values (M^-1 s^-1) [2]
1 | B1 | 44 | 0.08 | 43 | 0.19
2 | B2 | 25 | 0.02 | 26 | 0.04

Source: US20020164762
